Laboratory results published in patent publication US20250076311A1 (Chugai, published 2025).

How the values were obtained:
GST-hMSTN 61-160aa = target: T1, GST-hMSTN 61-160aa (human, UniProt O14793 61-160); test: Western blot with the antibody as probe on GST-tagged 100-amino-acid fragments of the human latent myostatin propeptide expressed in E. coli BL21 (lanes 1-8), GST control (lane 9) and human latent myostatin 100 ng (lane 10)
T1 sequence: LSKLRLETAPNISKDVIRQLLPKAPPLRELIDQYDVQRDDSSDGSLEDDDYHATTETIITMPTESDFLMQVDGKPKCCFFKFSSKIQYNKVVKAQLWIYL
Description: (§1) Fragments of the N-terminal propeptide coding region of human latent myostatin were cloned into a pGEX4.1 vector so as to produce GST tagged propeptide fragments of 100 amino acid each, with 80 amino acid overlap (FIG. 22A). Protein expression was induced in transformed BL21 competent cells with Overnight Express Autoinduction System (Merck Millipore) and protein was extracted using the BUGBUSTER® protein extraction reagent (Novagen).

GST-hMSTN 81-180aa = target: T2, GST-hMSTN 81-180aa (human, UniProt A1C2U3 81-180 (Pongo pygmaeus entry)); test: as above
T2 sequence: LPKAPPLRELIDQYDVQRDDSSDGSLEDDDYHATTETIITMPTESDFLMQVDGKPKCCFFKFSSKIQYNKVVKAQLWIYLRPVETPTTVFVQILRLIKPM
Description: as §1

GST-hMSTN 101-200aa = target: T3, GST-hMSTN 101-200aa (human, UniProt A1C2U3 101-200 (Pongo pygmaeus entry)); test: as above
T3 sequence: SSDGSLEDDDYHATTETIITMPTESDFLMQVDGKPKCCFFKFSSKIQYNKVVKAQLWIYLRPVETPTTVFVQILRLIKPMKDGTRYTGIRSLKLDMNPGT
Description: as §1

GST-hMSTN 41-140aa = target: T4, GST-hMSTN 41-140aa (human, UniProt O14793 41-140); test: as above
T4 sequence: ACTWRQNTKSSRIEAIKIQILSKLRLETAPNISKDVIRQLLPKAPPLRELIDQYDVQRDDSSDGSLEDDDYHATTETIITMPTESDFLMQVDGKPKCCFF
Description: as §1

[1] = target: T5, cynomolgus monkey FcγRIIIaS extracellular domain, His-tagged (cynomolgus monkey, UniProt Q8SPW2 21-206 at identity 1.00)); test: SPR Biacore, KD(SG1)/KD(variant)
T5 construct: also called cyno FcγRIIIaS; cynoFcγRIIIaS; not shown: C-terminal His-tag
T5 chain: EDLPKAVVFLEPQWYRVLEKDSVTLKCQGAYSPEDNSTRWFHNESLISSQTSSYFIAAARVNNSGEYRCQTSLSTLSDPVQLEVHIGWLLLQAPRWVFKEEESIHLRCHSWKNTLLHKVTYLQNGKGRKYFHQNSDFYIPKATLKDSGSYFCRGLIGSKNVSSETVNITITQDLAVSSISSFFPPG

[2] = target: T6, human FcγRIIb extracellular domain, His-tagged (human, UniProt P31994 43-217); test: SPR Biacore, KD(SG1)/KD(variant)
T6 construct: also called FcgRIIb (human); not shown: C-terminal His-tag
T6 sequence: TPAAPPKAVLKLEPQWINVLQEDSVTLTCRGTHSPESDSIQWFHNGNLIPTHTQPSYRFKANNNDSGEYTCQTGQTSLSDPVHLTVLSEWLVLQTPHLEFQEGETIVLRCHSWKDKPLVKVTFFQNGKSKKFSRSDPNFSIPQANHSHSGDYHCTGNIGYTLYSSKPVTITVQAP

[3] = target: T7, cynomolgus monkey FcγRIIa1 extracellular domain, His-tagged (cynomolgus monkey); test: SPR Biacore, KD(SG1)/KD(variant)
T7 construct: also called cyno FcγRIIa1; cynoFcgRIIa1; not shown: C-terminal His-tag
T7 chain: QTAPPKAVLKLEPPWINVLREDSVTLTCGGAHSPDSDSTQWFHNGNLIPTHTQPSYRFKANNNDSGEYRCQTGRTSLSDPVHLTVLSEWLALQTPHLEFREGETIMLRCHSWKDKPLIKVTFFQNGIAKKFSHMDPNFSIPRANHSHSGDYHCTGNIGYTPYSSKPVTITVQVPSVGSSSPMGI

[4] = target: T8, human FcγRIIaH extracellular domain, His-tagged (human, UniProt P12318 34-217); test: SPR Biacore, KD(SG1)/KD(variant)
T8 construct: also called human FcγRIIa (type H); FcgRIIaH; not shown: C-terminal His-tag
T8 sequence: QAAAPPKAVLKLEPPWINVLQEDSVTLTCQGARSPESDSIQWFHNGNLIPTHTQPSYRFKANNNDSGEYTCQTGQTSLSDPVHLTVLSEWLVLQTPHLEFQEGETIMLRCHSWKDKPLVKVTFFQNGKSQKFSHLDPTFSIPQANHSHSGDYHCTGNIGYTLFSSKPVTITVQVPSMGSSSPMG

B1: MST1573 (antibody, human IgG1, kappa, V domains shown)
VH: QSVEESGGRLVTPGTPLTLTCTVSGIDLSSSSMIWVRQAPGEGLKYIGFISKSGYTYYASWAKGRFTISKTSTTVDLKITSPTTEDTATYFCARGGYSGDWDYFTLWGPGTLVTVSS
VL: DIVMTQTPASVEAAVGGTVTIKCQASESIGNALAWYQQKPGQPPKLLIYGAFNLESGVPSRFRGSGSGTEYTLTISDLECDDAATYYCQGYFWSSSTIYAFWAFGGGTKVEIKR
notes: Constant regions as for MST1504
GST-hMSTN 61-160aa
  binding result: no binding
GST-hMSTN 81-180aa
  binding result: no binding
GST-hMSTN 101-200aa
  binding result: no binding
GST-hMSTN 41-140aa
  binding result: no binding

B2: M103205H795-MY068/M103202L889-SK1 (antibody, human IgG1, kappa, name in EU numbering)
heavy: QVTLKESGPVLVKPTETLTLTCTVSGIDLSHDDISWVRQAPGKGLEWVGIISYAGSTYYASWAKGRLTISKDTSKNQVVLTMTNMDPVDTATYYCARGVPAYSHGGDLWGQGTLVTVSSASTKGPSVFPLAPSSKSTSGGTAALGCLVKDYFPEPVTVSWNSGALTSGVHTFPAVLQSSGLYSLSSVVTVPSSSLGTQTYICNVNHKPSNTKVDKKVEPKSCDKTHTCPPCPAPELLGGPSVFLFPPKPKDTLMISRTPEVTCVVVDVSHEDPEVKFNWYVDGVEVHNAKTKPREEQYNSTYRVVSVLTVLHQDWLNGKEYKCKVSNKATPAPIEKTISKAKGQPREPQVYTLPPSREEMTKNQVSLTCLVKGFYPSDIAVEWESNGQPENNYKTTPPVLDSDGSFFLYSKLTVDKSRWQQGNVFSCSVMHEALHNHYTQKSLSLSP
light: DIVMTQSPATLSLSPGERATLSCTSSQSVYHANWLSWFQQKPGQPPKLLIYWASTLAYGVPSRFSGSGSGTDFTLTISSLQPEDAATYYCAGGYGGGRYAFGQGTKVEIKRTVAAPSVFIFPPSDEQLKSGTASVVCLLNNFYPREAKVQWKVDNALQSGNSQESVTEQDSKDSTYSLSSTLTLSKADYEKHKVYACEVTHQGLSSPVTKSFNRGEC
notes: Substitution introduced into M103205H795-SG1; EU numbering
[1]
  KD fold (SG1 = 1): 0.62 fold
[2]
  KD fold (SG1 = 1): 2.2 fold

B3: M103205H795-MY124/M103202L889-SK1 (antibody, human IgG1, kappa, name in EU numbering)
heavy: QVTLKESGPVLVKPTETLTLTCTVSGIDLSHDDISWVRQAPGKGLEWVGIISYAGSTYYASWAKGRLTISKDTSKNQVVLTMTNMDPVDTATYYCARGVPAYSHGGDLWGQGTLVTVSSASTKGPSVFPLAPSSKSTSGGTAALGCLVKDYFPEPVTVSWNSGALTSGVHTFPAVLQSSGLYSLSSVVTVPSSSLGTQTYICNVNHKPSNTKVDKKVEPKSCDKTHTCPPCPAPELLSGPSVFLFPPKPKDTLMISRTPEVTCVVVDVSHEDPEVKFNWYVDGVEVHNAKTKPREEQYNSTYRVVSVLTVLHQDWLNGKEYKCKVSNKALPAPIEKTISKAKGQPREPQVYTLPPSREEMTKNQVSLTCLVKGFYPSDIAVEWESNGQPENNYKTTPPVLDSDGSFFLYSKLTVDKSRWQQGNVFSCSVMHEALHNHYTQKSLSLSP
light: B2 light
notes: as for B2
[3]
  KD fold (SG1 = 1): 1.2 fold
[4]
  KD fold (SG1 = 1): 4.5 fold
